Reference: US20170145391

How the values were obtained:
His-S6K1C = His-S6K1C (UniProt P23443)
4E-BP1 (Calbiochem) = 4E-BP1 (Calbiochem) (UniProt Q13541)
Chain of 4E-BP1 (Calbiochem) (Q13541 whole entry): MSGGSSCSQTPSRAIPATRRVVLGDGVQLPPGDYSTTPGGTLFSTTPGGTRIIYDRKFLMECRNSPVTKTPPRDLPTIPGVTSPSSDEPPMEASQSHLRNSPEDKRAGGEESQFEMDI

Chain of His-S6K1C (P23443 332-502): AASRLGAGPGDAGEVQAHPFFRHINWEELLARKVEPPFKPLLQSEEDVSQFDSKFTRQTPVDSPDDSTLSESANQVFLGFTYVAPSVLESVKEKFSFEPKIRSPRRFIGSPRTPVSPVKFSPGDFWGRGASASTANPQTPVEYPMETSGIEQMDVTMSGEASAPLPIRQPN

Substance: FLAG-mTORα
- mTOR in vitro kinase assay; immunoblot with phosphospecific antibody pT389-S6K1 (His-S6K1C): mTORβ can phosphorylate both S6K1 and 4E-BP1 in vitro, but to a lesser extent than mTORα
- mTOR in vitro kinase assay; immunoblot with phosphospecific antibody pS65-4E-BP1 (4E-BP1 (Calbiochem)): mTORβ can phosphorylate both S6K1 and 4E-BP1 in vitro, but to a lesser extent than mTORα
